Several values for one entry are separate records, joined by “and”; a condition that tells them apart may be missing. Identical values can stand only once. Square brackets hold non-standard residues; d marks the D form. Ends that are not written are not given here. Nle = CCCC[C@H](N)C(=O)O
Legend:
Experiment in all cases: cell-based or functional assay
human PTH-1 receptor [1] = target: T1, human PTH-1 receptor (human, UniProt Q03431 27-593)
T1 sequence (looked up): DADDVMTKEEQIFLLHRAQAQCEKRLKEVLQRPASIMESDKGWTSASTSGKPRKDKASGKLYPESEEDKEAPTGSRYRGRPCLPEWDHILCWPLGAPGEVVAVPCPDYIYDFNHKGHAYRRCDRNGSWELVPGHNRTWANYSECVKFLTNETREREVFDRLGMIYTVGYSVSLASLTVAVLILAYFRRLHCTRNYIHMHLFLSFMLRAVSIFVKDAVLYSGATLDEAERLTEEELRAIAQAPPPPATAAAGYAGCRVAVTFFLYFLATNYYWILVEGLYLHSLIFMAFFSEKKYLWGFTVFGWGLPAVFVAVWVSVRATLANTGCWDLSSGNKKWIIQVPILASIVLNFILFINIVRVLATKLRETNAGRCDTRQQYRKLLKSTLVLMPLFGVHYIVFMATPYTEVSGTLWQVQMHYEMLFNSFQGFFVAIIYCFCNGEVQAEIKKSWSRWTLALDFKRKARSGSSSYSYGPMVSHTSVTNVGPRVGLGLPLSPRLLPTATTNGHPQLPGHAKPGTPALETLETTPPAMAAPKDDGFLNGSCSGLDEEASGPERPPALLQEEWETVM

human PTH-2 receptor = human PTH-2 receptor (human, UniProt P49190 25-550)
Sequence of human PTH-2 receptor (P49190 25-550): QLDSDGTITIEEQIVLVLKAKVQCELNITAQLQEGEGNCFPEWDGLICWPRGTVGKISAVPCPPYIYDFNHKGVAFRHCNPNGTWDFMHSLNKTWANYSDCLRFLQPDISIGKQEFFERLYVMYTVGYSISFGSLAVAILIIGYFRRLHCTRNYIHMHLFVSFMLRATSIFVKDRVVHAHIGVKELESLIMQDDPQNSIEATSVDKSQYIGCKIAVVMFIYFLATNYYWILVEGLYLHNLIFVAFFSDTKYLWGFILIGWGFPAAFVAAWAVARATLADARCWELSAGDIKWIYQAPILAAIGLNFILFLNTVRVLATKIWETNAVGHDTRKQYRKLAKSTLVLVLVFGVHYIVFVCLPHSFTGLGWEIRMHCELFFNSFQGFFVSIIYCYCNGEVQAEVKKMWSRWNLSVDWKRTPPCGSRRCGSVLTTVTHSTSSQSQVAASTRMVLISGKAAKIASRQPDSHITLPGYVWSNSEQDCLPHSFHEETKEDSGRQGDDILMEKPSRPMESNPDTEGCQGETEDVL

human PTH-1 receptor [2] = target: T1, human PTH-1 receptor; remark: listed apart in the source
[3] = target: truncated human PTH-1 receptor hΔNt (human), Q03431
human PTH-1 receptor [4] = target: T1, human PTH-1 receptor; remark: listed apart in the source
rat PTH-1 receptor = target: T2, rat PTH-1 receptor (rat, UniProt P25961 27-591)
T2 sequence (looked up): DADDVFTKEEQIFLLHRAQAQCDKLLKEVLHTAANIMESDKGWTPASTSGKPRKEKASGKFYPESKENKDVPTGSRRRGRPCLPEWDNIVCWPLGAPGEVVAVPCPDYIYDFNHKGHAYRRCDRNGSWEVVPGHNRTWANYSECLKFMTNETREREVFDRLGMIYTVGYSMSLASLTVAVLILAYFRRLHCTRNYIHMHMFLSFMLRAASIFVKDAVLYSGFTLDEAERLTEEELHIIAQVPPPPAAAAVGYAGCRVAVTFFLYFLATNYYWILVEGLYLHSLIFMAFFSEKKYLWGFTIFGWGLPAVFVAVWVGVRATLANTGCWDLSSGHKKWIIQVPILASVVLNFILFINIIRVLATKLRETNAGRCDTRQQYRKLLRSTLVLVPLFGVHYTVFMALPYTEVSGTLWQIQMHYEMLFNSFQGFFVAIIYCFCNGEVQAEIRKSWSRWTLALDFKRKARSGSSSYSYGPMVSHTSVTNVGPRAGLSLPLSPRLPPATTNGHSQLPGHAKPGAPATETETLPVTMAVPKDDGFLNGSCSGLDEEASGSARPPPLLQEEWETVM

human PTH-1 receptor [5] = target: T1, human PTH-1 receptor; remark: listed apart in the source

AVAEIQLMHARA-NH2 [[A3,A10,R11,A12]rPTH(1-12)]
cAMP EC50, HKRK-B7 cells (human PTH-1 receptor [1]): -5 Log M and 10.2 µM
cAMP EC50, LLC-P2R-22 cells (human PTH-2 receptor): -3.5 Log M and 342 µM

AVAEIQLMHQRAKH-NH2 [[A3,Q10,R11,A12]rPTH(1-14)]
cAMP EC50, HKRK-B7 cells (human PTH-1 receptor [1]): -6.1 Log M and 0.8 µM

AVSEIQL[Nle]HNLGKHLASVER[Nle]QWLRKKLQDVHNY-NH2 [[Nle^8,21,Tyr^34]-rPTH(1-34)NH2]
cAMP EC50, HKRK-B7 cells (human PTH-1 receptor [1]): -8.6 Log M and 0.0033 µM
cAMP EC50, LLC-P2R-22 cells (human PTH-2 receptor): -8.4 Log M and 0.0044 µM
cAMP EC50, COS-7 cells, WT hPTH-1 receptor (human PTH-1 receptor [2]): -9.2 Log M and 0.0007 µM
cAMP Emax, COS-7 cells, WT hPTH-1 receptor (human PTH-1 receptor [2]): 226 picomole/well
cAMP Emax, COS-7 cells, hDeINt (picomole/well) [3]: 243

AVSEIQLMHNLGKH-NH2 [native rat (r)PTH(1-14)NH2]
cAMP EC50, HKRK-B7 cells (human PTH-1 receptor [1]): -3.9 Log M and 133 µM
cAMP EC50, COS-7 cells, WT hPTH-1 receptor (human PTH-1 receptor [2]): -3.8 Log M and 152 µM
cAMP Emax, COS-7 cells, WT hPTH-1 receptor (human PTH-1 receptor [2]): 221 picomole/well
cAMP Emax, COS-7 cells, hDeINt (picomole/well) [3]: 222

AVAEIQLMHARAKW-NH2 [[A3,A10,R11,A12,W14]rPTH(1-14)amide]
cAMP potency relative to native PTH(1-14), LLC-PK1 cells stably expressing the hPTH-1 receptor (human PTH-1 receptor [4]): 220 fold
cAMP EC50, HKRK-B7 cells (human PTH-1 receptor [1]): -6.3 Log M and 0.6 µM
cAMP EC50, ROS 17/2.8 cells (rat PTH-1 receptor): -5.5 Log M

AVAEIQLMHARAKH-NH2 [[A3,A10,R11,A12]rPTH(1-14)amide]
cAMP potency relative to native PTH(1-14), LLC-PK1 cells stably expressing the hPTH-1 receptor (human PTH-1 receptor [4]): 160 fold
cAMP potency relative to native PTH(1-14), LLC-PK-1 cells stably expressing the hPTH-1 receptor (human PTH-1 receptor [4]): 100 fold
cAMP EC50, HKRK-B7 cells (human PTH-1 receptor [1]): -6.1 Log M and 0.83 µM
cAMP EC50, LLC-P2R-22 cells (human PTH-2 receptor): -3.9 Log M and 126 µM
cAMP EC50, COS-7 cells, WT hPTH-1 receptor (human PTH-1 receptor [2]): -6 Log M and 4.66 µM
cAMP Emax, COS-7 cells, WT hPTH-1 receptor (human PTH-1 receptor [2]): 243 picomole/well
cAMP Emax, COS-7 cells, hDeINt (picomole/well) [3]: 250
cAMP potency relative to native PTH(1-14), truncated hPTH-1 receptor [3]: 100 fold

AVAEIQLMHARAK-NH2 [[A3,A10,R11,A12]rPTH(1-13)]
cAMP EC50, HKRK-B7 cells (human PTH-1 receptor [1]): -5.6 Log M and 2.4 µM
cAMP EC50, LLC-P2R-22 cells (human PTH-2 receptor): -4 Log M and 106 µM

AVAEIQLMHAR-NH2 [[A3,A10,R11]rPTH(1-11)]
cAMP EC50, HKRK-B7 cells (human PTH-1 receptor [1]): -4.8 Log M and 17.1 µM
cAMP EC50, COS-7 cells, WT hPTH-1 receptor (human PTH-1 receptor [2]): -4.6 Log M and 29.1 µM
cAMP Emax, COS-7 cells, WT hPTH-1 receptor (human PTH-1 receptor [2]): 238 picomole/well
cAMP Emax, COS-7 cells, hDeINt (picomole/well) [3]: 243

SVSEIQLMHNLGKHLNSMERVEWLRKKLQDVHNY-NH2 [[Tyr^34]human (h)PTH(1-34)NH2]
cAMP EC50, HKRK-B7 cells (human PTH-1 receptor [1]): -8.4 Log M and 0.004 µM
cAMP EC50, COS-7 cells, WT hPTH-1 receptor (human PTH-1 receptor [2]): -9.3 Log M and 0.0005 µM
cAMP Emax, COS-7 cells, WT hPTH-1 receptor (human PTH-1 receptor [2]): 226 picomole/well
cAMP EC50, SAOS-2 cells (human PTH-1 receptor [5]): -9.28 Log M and 0.00052 µM
cAMP Emax, COS-7 cells, hDeINt (picomole/well) [3]: 238
